Common to all, as to assay: cell-based or functional assay
In assay [1] the target is wild type human growth hormone (human, UniProt P01241 27-217).
A further assay addresses hGHQ40N (human, UniProt P01241 27-217).
The next assay addresses hGHQ141N (human, UniProt P01241 27-217).

This is an account of results in patent US20100099610A1 (published 2010).

Sequence of hGHQ141N (P01241 27-217 Q167N): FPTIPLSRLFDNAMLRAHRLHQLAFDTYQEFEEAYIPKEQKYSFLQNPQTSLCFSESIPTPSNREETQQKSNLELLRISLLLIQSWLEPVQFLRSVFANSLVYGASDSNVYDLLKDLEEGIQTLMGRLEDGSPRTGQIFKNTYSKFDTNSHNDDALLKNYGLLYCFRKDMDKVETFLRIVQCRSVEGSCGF
Sequence of hGHQ40N (P01241 27-217 Q66N): as the sequence (P01241 27-217 Q167N) above, with Q40N, N141Q counted along it
Sequence of wild type human growth hormone (P01241 27-217): as the sequence (P01241 27-217 Q167N) above, with N141Q counted along it

B1: GlyPro-mTGase_Y75A from S. ladakanum (enzyme)
chain: GPDSDERVTPPAEPLDRMPDPYRPSYGRAETIVNNYIRKWQQVYSHRDGRKQQMTEEQREWLSYGCVGVTWVNSGQAPTNRLAFAFFDEDKYKNELKNGRPRSGETRAEFEGRVAKDSFDEAKGFQRARDVASVMNKALENAHDEGAYLDNLKKELANGNDALRNEDARSPFYSALRNTPSFKDRNGGNHDPSKMKAVIYSKHFWSGQDRSGSSDKRKYGDPEAFRPDRGTGLVDMSRDRNIPRSPTSPGESFVNFDYGWFGAQTEADADKTVWTHGNHYHAPNGSLGAMHVYESKFRNWSDGYSDFDRGAYVVTFVPKSWNTAPDKVKQGWP
With B1, in assay [1], the “RS (relative selectivity against AlaPro-mTGase from S. mobaraensis)” value was 3. Also, the “RSA Q141” value with hGHQ40N was 0.06 relative to wild type TGase. Moreover, the “RSA Q40” value with hGHQ141N was 0.03 relative to wild type TGase.

B2: GlyPro-mTGase_Y75F from S. ladakanum (enzyme)
chain: GPDSDERVTPPAEPLDRMPDPYRPSYGRAETIVNNYIRKWQQVYSHRDGRKQQMTEEQREWLSYGCVGVTWVNSGQFPTNRLAFAFFDEDKYKNELKNGRPRSGETRAEFEGRVAKDSFDEAKGFQRARDVASVMNKALENAHDEGAYLDNLKKELANGNDALRNEDARSPFYSALRNTPSFKDRNGGNHDPSKMKAVIYSKHFWSGQDRSGSSDKRKYGDPEAFRPDRGTGLVDMSRDRNIPRSPTSPGESFVNFDYGWFGAQTEADADKTVWTHGNHYHAPNGSLGAMHVYESKFRNWSDGYSDFDRGAYVVTFVPKSWNTAPDKVKQGWP
In the case of B2, the “RS (relative selectivity against AlaPro-mTGase from S. mobaraensis)” value in assay [1] was found to be 5.1.

B3: S. ladakanum GlyPro-TGase mutant S250C (enzyme)
chain: GPDSDERVTPPAEPLDRMPDPYRPSYGRAETIVNNYIRKWQQVYSHRDGRKQQMTEEQREWLSYGCVGVTWVNSGQYPTNRLAFAFFDEDKYKNELKNGRPRSGETRAEFEGRVAKDSFDEAKGFQRARDVASVMNKALENAHDEGAYLDNLKKELANGNDALRNEDARSPFYSALRNTPSFKDRNGGNHDPSKMKAVIYSKHFWSGQDRSGSSDKRKYGDPEAFRPDRGTGLVDMSRDRNIPRSPTSPGECFVNFDYGWFGAQTEADADKTVWTHGNHYHAPNGSLGAMHVYESKFRNWSDGYSDFDRGAYVVTFVPKSWNTAPDKVKQGWP
For B3, the “RSA Q141” value in the assay with hGHQ40N was 5.34 relative to wild type TGase. Besides, the “RSA Q40” value in the assay with hGHQ141N was 3.02 relative to wild type TGase.

B4: GlyPro-mTGase_Y62H_Y75N from S. ladakanum (enzyme)
chain: GPDSDERVTPPAEPLDRMPDPYRPSYGRAETIVNNYIRKWQQVYSHRDGRKQQMTEEQREWLSHGCVGVTWVNSGQNPTNRLAFAFFDEDKYKNELKNGRPRSGETRAEFEGRVAKDSFDEAKGFQRARDVASVMNKALENAHDEGAYLDNLKKELANGNDALRNEDARSPFYSALRNTPSFKDRNGGNHDPSKMKAVIYSKHFWSGQDRSGSSDKRKYGDPEAFRPDRGTGLVDMSRDRNIPRSPTSPGESFVNFDYGWFGAQTEADADKTVWTHGNHYHAPNGSLGAMHVYESKFRNWSDGYSDFDRGAYVVTFVPKSWNTAPDKVKQGWP
With B4, the “RS (relative selectivity against AlaPro-mTGase from S. mobaraensis)” value in assay [1] was 4.6.

B5: GlyPro-mTGase_Y62H_Y75F from S. ladakanum (enzyme)
chain: GPDSDERVTPPAEPLDRMPDPYRPSYGRAETIVNNYIRKWQQVYSHRDGRKQQMTEEQREWLSHGCVGVTWVNSGQFPTNRLAFAFFDEDKYKNELKNGRPRSGETRAEFEGRVAKDSFDEAKGFQRARDVASVMNKALENAHDEGAYLDNLKKELANGNDALRNEDARSPFYSALRNTPSFKDRNGGNHDPSKMKAVIYSKHFWSGQDRSGSSDKRKYGDPEAFRPDRGTGLVDMSRDRNIPRSPTSPGESFVNFDYGWFGAQTEADADKTVWTHGNHYHAPNGSLGAMHVYESKFRNWSDGYSDFDRGAYVVTFVPKSWNTAPDKVTQGWP
As to B5, the “RS (relative selectivity against AlaPro-mTGase from S. mobaraensis)” value in assay [1] turned out to be 6.4.

B6: GlyPro-mTGase_Y75N from S. ladakanum (enzyme)
chain: GPDSDERVTPPAEPLDRMPDPYRPSYGRAETIVNNYIRKWQQVYSHRDGRKQQMTEEQREWLSYGCVGVTWVNSGQNPTNRLAFAFFDEDKYKNELKNGRPRSGETRAEFEGRVAKDSFDEAKGFQRARDVASVMNKALENAHDEGAYLDNLKKELANGNDALRNEDARSPFYSALRNTPSFKDRNGGNHDPSKMKAVIYSKHFWSGQDRSGSSDKRKYGDPEAFRPDRGTGLVDMSRDRNIPRSPTSPGESFVNFDYGWFGAQTEADADKTVWTHGNHYHAPNGSLGAMHVYESKFRNWSDGYSDFDRGAYVVTFVPKSWNTAPDKVKQGWP
With B6, in assay [1], the “RS (relative selectivity against AlaPro-mTGase from S. mobaraensis)” value stood at 3.4.

B7: GlyPro-mTGase from S. ladakanum (enzyme)
chain: GPDSDERVTPPAEPLDRMPDPYRPSYGRAETIVNNYIRKWQQVYSHRDGRKQQMTEEQREWLSYGCVGVTWVNSGQYPTNRLAFAFFDEDKYKNELKNGRPRSGETRAEFEGRVAKDSFDEAKGFQRARDVASVMNKALENAHDEGAYLDNLKKELANGNDALRNEDARSPFYSALRNTPSFKDRNGGNHDPSKMKAVIYSKHFWSGQDRSGSSDKRKYGDPEAFRPDRGTGLVDMSRDRNIPRSPTSPGESFVNFDYGWFGAQTEADADKTVWTHGNHYHAPNGSLGAMHVYESKFRNWSDGYSDFDRGAYVVTFVPKSWNTAPDKVKQGWP
Regarding B7, in assay [1], the “RS (relative selectivity against AlaPro-mTGase from S. mobaraensis)” value turned out to be 1.8.

B8: S. ladakanum GlyPro-TGase mutant S250D (enzyme)
chain: GPDSDERVTPPAEPLDRMPDPYRPSYGRAETIVNNYIRKWQQVYSHRDGRKQQMTEEQREWLSYGCVGVTWVNSGQYPTNRLAFAFFDEDKYKNELKNGRPRSGETRAEFEGRVAKDSFDEAKGFQRARDVASVMNKALENAHDEGAYLDNLKKELANGNDALRNEDARSPFYSALRNTPSFKDRNGGNHDPSKMKAVIYSKHFWSGQDRSGSSDKRKYGDPEAFRPDRGTGLVDMSRDRNIPRSPTSPGEDFVNFDYGWFGAQTEADADKTVWTHGNHYHAPNGSLGAMHVYESKFRNWSDGYSDFDRGAYVVTFVPKSWNTAPDKVKQGWP
Turning to B8, the “RSA Q141” value with hGHQ40N was 1.04 relative to wild type TGase. For the same molecule, in the assay with hGHQ141N, the “RSA Q40” value was 0.76 relative to wild type TGase.

B9: S. ladakanum GlyPro-TGase mutant S250F (enzyme)
chain: GPDSDERVTPPAEPLDRMPDPYRPSYGRAETIVNNYIRKWQQVYSHRDGRKQQMTEEQREWLSYGCVGVTWVNSGQYPTNRLAFAFFDEDKYKNELKNGRPRSGETRAEFEGRVAKDSFDEAKGFQRARDVASVMNKALENAHDEGAYLDNLKKELANGNDALRNEDARSPFYSALRNTPSFKDRNGGNHDPSKMKAVIYSKHFWSGQDRSGSSDKRKYGDPEAFRPDRGTGLVDMSRDRNIPRSPTSPGEFFVNFDYGWFGAQTEADADKTVWTHGNHYHAPNGSLGAMHVYESKFRNWSDGYSDFDRGAYVVTFVPKSWNTAPDKVKQGWP
For the molecule B9, the “RSA Q141” value in the assay with hGHQ40N is 2.63 relative to wild type TGase. The “RSA Q40” value with hGHQ141N is 1.85 relative to wild type TGase.

B10: S. ladakanum GlyPro-TGase mutant S250G (enzyme)
chain: GPDSDERVTPPAEPLDRMPDPYRPSYGRAETIVNNYIRKWQQVYSHRDGRKQQMTEEQREWLSYGCVGVTWVNSGQYPTNRLAFAFFDEDKYKNELKNGRPRSGETRAEFEGRVAKDSFDEAKGFQRARDVASVMNKALENAHDEGAYLDNLKKELANGNDALRNEDARSPFYSALRNTPSFKDRNGGNHDPSKMKAVIYSKHFWSGQDRSGSSDKRKYGDPEAFRPDRGTGLVDMSRDRNIPRSPTSPGEGFVNFDYGWFGAQTEADADKTVWTHGNHYHAPNGSLGAMHVYESKFRNWSDGYSDFDRGAYVVTFVPKSWNTAPDKVKQGWP
For B10, the “RSA Q141” value in the assay with hGHQ40N is 2.42 relative to wild type TGase. Besides, the “RSA Q40” value in the assay with hGHQ141N is 1.77 relative to wild type TGase.

B11: S. ladakanum GlyPro-TGase mutant S250H (enzyme)
chain: GPDSDERVTPPAEPLDRMPDPYRPSYGRAETIVNNYIRKWQQVYSHRDGRKQQMTEEQREWLSYGCVGVTWVNSGQYPTNRLAFAFFDEDKYKNELKNGRPRSGETRAEFEGRVAKDSFDEAKGFQRARDVASVMNKALENAHDEGAYLDNLKKELANGNDALRNEDARSPFYSALRNTPSFKDRNGGNHDPSKMKAVIYSKHFWSGQDRSGSSDKRKYGDPEAFRPDRGTGLVDMSRDRNIPRSPTSPGEHFVNFDYGWFGAQTEADADKTVWTHGNHYHAPNGSLGAMHVYESKFRNWSDGYSDFDRGAYVVTFVPKSWNTAPDKVKQGWP
Consider B11, for which the “RSA Q141” value with hGHQ40N was 2.25 relative to wild type TGase. Besides, the “RSA Q40” value in the assay with hGHQ141N is 1.4 relative to wild type TGase.

B12: S. ladakanum GlyPro-TGase mutant S250L (enzyme)
chain: GPDSDERVTPPAEPLDRMPDPYRPSYGRAETIVNNYIRKWQQVYSHRDGRKQQMTEEQREWLSYGCVGVTWVNSGQYPTNRLAFAFFDEDKYKNELKNGRPRSGETRAEFEGRVAKDSFDEAKGFQRARDVASVMNKALENAHDEGAYLDNLKKELANGNDALRNEDARSPFYSALRNTPSFKDRNGGNHDPSKMKAVIYSKHFWSGQDRSGSSDKRKYGDPEAFRPDRGTGLVDMSRDRNIPRSPTSPGELFVNFDYGWFGAQTEADADKTVWTHGNHYHAPNGSLGAMHVYESKFRNWSDGYSDFDRGAYVVTFVPKSWNTAPDKVKQGWP
In the case of B12, in the assay with hGHQ40N, the “RSA Q141” value is 3.59 relative to wild type TGase. The “RSA Q40” value in the assay with hGHQ141N was 1.9 relative to wild type TGase.

B13: AlaPro-mTGase from S. mobaraensis (enzyme)
chain: APDSDDRVTPPAEPLDRMPDPYRPSYGRAETVVNNYIRKWQQVYSHRDGRKQQMTEEQREWLSYGCVGVTWVNSGQYPTNRLAFASFDEDRFKNELKNGRPRSGETRAEFEGRVAKESFDEEKGFQRAREVASVMNRALENAHDESAYLDNLKKELANGNDALRNEDARSPFYSALRNTPSFKERNGGNHDPSRMKAVIYSKHFWSGQDRSSSADKRKYGDPDAFRPAPGTGLVDMSRDRNIPRSPTSPGEGFVNFDYGWFGAQTEADADKTVWTHGNHYHAPNGSLGAMHVYESKFRNWSEGYSDFDRGAYVITFIPKSWNTAPDKVKQGWP
B13: the “RS (relative selectivity against AlaPro-mTGase from S. mobaraensis)” value in assay [1] amounted to 1.
